From patent publication US20080242590A1, “New Method 706” (ASTRAZENECA AB, priority 2007, published 2008)

Legend:
[1] = system: amyloid β peptide 1-40 (Aβ40); experiment: Degradation of Aβ40 in human plasma (Example 18); format: biochemical; conditions: 5 μg/ml, 4 hours, 37° C.
Method: Blood from eight individuals (5 females and 3 males) were collected into pre-chilled heparin-plasma tubes at the healthcare centre (AstraZeneca) at two different time points. Plasma was prepared by centrifugation for 20 min at 4° C. at 2500×g within 30 minutes of sampling. Plasma samples were transferred to pre-chilled polypropylene tubes and immediately frozen and stored at −70° C. prior to use. His-Fc-Nep (6 μg/ml) or 5 μg/ml recombinant human Neprilysin (R&D systems) with corresponding vehicles (50 mM Tris-HCl, 150 mM NaCl pH 7.5 or 25 mM Tris-HCl, 0.1 M NaCl pH 8.0) in presence or absence of 10 μM phosphoramidon was incubated with a pool of plasma at 37° C. for 0 and 4 h. A final concentration of 4.7 mM EDTA was added into the tubes before the amount of Aβ40 was analysed using a commercial ELISA kit obtained from Biosource. His-Fc-Nep (6 μg/ml) and commercial human recombinant neprilysin (5 μg/ml) degraded Aβ40 with 33% and 70%, respectively, compared to vehicle after 4 hours incubation at 37° C. The Aβ40 levels were unaffected after addition of 10 μM phosphoramidon (FIG. 4).

[2] = Pharmacokinetics of Fc-Nep and commercial neprilysin, single i.v. dose (Example 20); format: in vivo; conditions: mice, single i.v. dose 1 mg/kg
Method: The Fc-Nep fusion protein was developed to improve the pharmacokinetic entities of neprilysin with the specific aims to reduce clearance and improve half-life. To test this we have administrated a single i.v. dose of either 1 mg/kg commercial neprilysin or 1 alternatively 5 mg/kg in-house produced Fc-Nep to mice. At set times after dosing blood samples were drawn from the tail vein or by heart puncture at termination. Upon sampling into tubes containing EDTA the aliquots were put on ice. Plasma was prepared by centrifugation within 15 minutes of sampling (typically 1500 g at 4° C. for 10 min) and immediately frozen. Plasma concentrations of Fc-Nep and neprilysin were determined via immunoassays using either anti-Nep for commercial neprilysin or anti-human IgG for Fc-Nep as capture antibodies while both substances were detected via an anti-Nep antibody. Pharmacokinetic parameters are calculated using a software package (WinNonlin, Pharsight Corporation, USA) and in this example experiment the calculated half-life had increased from about 5 minutes for Nep to about 20 hours for Fc-Nep.

amyloid β 1-40 peptide = experiment: Degradation of amyloid β 1-40 peptide by Fc-Neprilysin and Neprilysin in buffer; format: biochemical; conditions: enzyme 2.4 μg/ml, Aβ 1-40 300 nM, 2.5 hours at 37° C., buffer
Method: The assay is measuring the remaining amyloid β 1-40 peptide (Bachem) concentration following its incubation in the presence of Neprilysin (R&D Systems) or Fc-Neprilysin with or without Neprilysin inhibitor. 100 μl of reaction mixture containing amyloid β 1-40 peptide (final concentrations, 300, 30 or 3 nM) and/or Neprilysin (2.4 μg/ml), and/or Fc-Neprilysin construct (2.4 μg/ml), and/or Phosphoramidone (10 μM) was incubated in a round bottom 96-well polypropylene plate at 37° C. for 2.5 hours. Following incubation, 10 μl of reaction mixture was transferred into Thermo-Fast© 96-well PCR plate (Abgene, UK) containing 10 μl of Standard Diluent (Gyros AB). Amyloid β 1-40 concentration was determined using Gyrolab Workstation LIF system. Biotinylated anti-amyloid β antibodies (6E10; final concentration 50 μg/ml; Signet) were used as capturing antibodies and polyclonal anti-human amyloid β antibodies (44-348; Biosource) labeled with Alexa Fluor 647 dye (Molecular probes) were used as detection antibodies. Amyloid β 1-40 peptide concentration measurement performed according to the manufacturers protocol using Gyrolab Bioaffy™ Software Package Version 1.8 (Gyros AB). Amyloid β 1-40 peptide degradation by Neprilysin was calculated as a percentage of Amyloid β 1-40 peptide left after incubation in the presence of Neprilysin compared to the amyloid β 1-40 peptide concentration in the absence of Neprilysin.

[3] = system: amyloid β peptide 1-40 (Aβ40); experiment: Ex-vivo degradation of Aβ40 in guinea pig plasma; format: biochemical; conditions: 5 μg/ml, 4 hours, 37° C.
Method: Degradation of amyloid β peptide 1-40 (Aβ40) and amyloid β peptide 1-42 (Aβ42) by neprilysin was investigated using heparinized plasma from male Dunkin Hartley guinea pigs, weighing 250-300 g (HBLidkoping ka). Blood was withdrawn from anaesthetized guinea pigs by heart puncture. The blood were collected into prechilled heparin-plasma tubes and centrifuged for 10 min at 4° C. at 3000×g within 20 minutes of sampling. Plasma samples were transferred to pre-chilled polypropylene tubes and immediately frozen on dry ice and stored at −70° C. prior to use. The experiments were performed on a pool of plasma from seven guinea pigs. His-Fc-Nep (6 μg/ml or 208 μg/ml) or 5 μg/ml recombinant human Neprilysin (R&D systems) with corresponding vehicles (50 mM Tris-HCl, 150 mM NaCl pH 7.5 or 25 mM Tris-HCl, 0.1 M NaCl pH 8.0) were incubated with a pool of plasma in presence or absence of 10 μM phosphoramidon (BIOMOL) at 37° C. for 0 and 4 h. A final concentration of 4.7 mM EDTA was added into the tubes before the amount of Aβ40 and Aβ42 was analysed using a commercial ELISA kit obtained from Biosource (Aβ1-40) or Innogenetics (Aβ1-42).

[4] = Pharmacokinetics of Fc-Nep and in-house produced Neprilysin, single i.v. dose (Example 27); format: in vivo; conditions: mice, single i.v. dose 10 or 50 nmol enzyme/kg
Method: The Fc-Nep fusion protein was developed to improve the pharmacokinetic entities of neprilysin with the specific aims to reduce clearance and improve half-life. To test this we have administrated a single i.v. dose of 10 or 50 nmol enzyme/kg body weight neprilysin (Nep) or Fc-Nep (1 and 5 mg/kg) to mice. At set times the dose blood samples were drawn from the tail vein or by heart puncture at termination. Upon sampling into tubes containing EDTA the aliquots were put on ice. Plasma was prepared by centrifugation within 15 minutes of sampling (typically 1500 g at 4° C. for 10 min) and immediately frozen. Plasma concentrations of Nep and Fc-Nep were determined via immunoassays using either anti-Nep for Nep or anti-human IgG for Fc-Nep as capture antibodies while both substances were detected via an anti-Nep antibody. Pharmacokinetic parameters are calculated using a software package (WinNonlin, Pharsight Corporation, USA) and in this example experiment the calculated half-life had increased from about 1 day for Nep to about 2.5 weeks for Fc-Nep.

| Molecule | Aβ40 degraded compared to vehicle [1] [%] | calculated half-life [2] | Amyloid β 1-40 peptide degraded (amyloid β 1-40 peptide) [%] | Aβ40 degraded compared to vehicle [3] [%] | calculated half-life [4] |
| --- | --- | --- | --- | --- | --- |
| Recombinant human Neprilysin: commercially available Recombinant Human Neprilysin (R&D Systems), positive control (protein) YDDGICKSSDCIKSAARLIQNMDATTEPCTDFFKYACGGWLKRNVIPETSSRYGNFDILRDELEVVLKDVLQEPKTEDIVAVQKAKALYRSCINESAIDSRGGEPLLKLLPDIYGWPVATENWEQKYGASWTAEKAIAQLNSKYGKKVLINLFVGTDDKNSVNHVIHIDQPRLGLPSRDYYECTGIYKEACTAYVDFMISVARLIRQEERLPIDENQLALEMNKVMELEKEIANATAKPEDRNDPMLLYNKMTLAQIQNNFSLEINGKPFSWLNFTNEIMSTVNISITNEEDVVVYAPEYLTKLKPILTKYSARDLQNLMSWRFIMDLVSSLSRTYKESRNAFRKALYGTTSETATWRRCANYVNGNMENAVGRLYVEAAFAGESKHVVEDLIAQIREVFIQTLDDLTWMDAETKKRAEEKALAIKERIGYPDDIVSNDNKLNNEYLELNYKEDEYFENIIQNLKFSQSKQLKKLREKVDKDEWISGAAVVNAFYSSGRNQIVFPAGILQPPFFSAQQSNSLNYGGIGMVIGHEITHGFDDNGRNFNKDGDLVDWWTQQSASNFKEQSQCMVYQYGNFSWDLAGGQHLNGINTLGENIADNGGLGQAYRAYQNYIKKNGEEKLLPGLDLNHKQLFFLNFAQVWCGTYRPEYAVNSIKTDVHSPGNFRIIGTLQNSAEFSEAFHCRKNSYMNPEKKCRVW | 70 | about 5 minutes | 64 | 49 | – |
| Nep: in-house produced Neprilysin (extra-cellular domain only), without Fc (protein, UniProt P08473 52-750, looked up, extracellular domain, in-house produced Neprilysin (extra-cellular domain only), without Fc) extracellular domain: YDDGICKSSDCIKSAARLIQNMDATTEPCTDFFKYACGGWLKRNVIPETSSRYGNFDILRDELEVVLKDVLQEPKTEDIVAVQKAKALYRSCINESAIDSRGGEPLLKLLPDIYGWPVATENWEQKYGASWTAEKAIAQLNSKYGKKVLINLFVGTDDKNSVNHVIHIDQPRLGLPSRDYYECTGIYKEACTAYVDFMISVARLIRQEERLPIDENQLALEMNKVMELEKEIANATAKPEDRNDPMLLYNKMTLAQIQNNFSLEINGKPFSWLNFTNEIMSTVNISITNEEDVVVYAPEYLTKLKPILTKYSARDLQNLMSWRFIMDLVSSLSRTYKESRNAFRKALYGTTSETATWRRCANYVNGNMENAVGRLYVEAAFAGESKHVVEDLIAQIREVFIQTLDDLTWMDAETKKRAEEKALAIKERIGYPDDIVSNDNKLNNEYLELNYKEDEYFENIIQNLKFSQSKQLKKLREKVDKDEWISGAAVVNAFYSSGRNQIVFPAGILQPPFFSAQQSNSLNYGGIGMVIGHEITHGFDDNGRNFNKDGDLVDWWTQQSASNFKEQSQCMVYQYGNFSWDLAGGQHLNGINTLGENIADNGGLGQAYRAYQNYIKKNGEEKLLPGLDLNHKQLFFLNFAQVWCGTYRPEYAVNSIKTDVHSPGNFRIIGTLQNSAEFSEAFHCRKNSYMNPEKKCRVW | – | – | – | – | about 1 day |
